{"source": "patent US20120190612A1", "about": "“METHODS OF TREATMENT” (CRC FOR ASTHMA AND AIRWAYS LTD., priority 2009, published 2012)", "molecules": {"B1": {"name": "VEGFD: growth factor (R&D Systems) used as chemoattractant gradient for lymphatic endothelial cells (protein)", "chain": "FYDIETLKVIDEEWQRTQCSPRETCVEVASELGKSTNTFFKPPCVNVFRCGGCCNEESLICMNTSTSYISKQLFEISVPLTSVPELVPVKVANHTGCKCLPTAPRHPYS"}, "B2": {"name": "tumstatin: NC1 domain of the α3 chain of collagen type IV; human sequence SEQ ID NO:3; commercially available tumstatin was used (protein, listed as Homo sapiens)", "chain": "GFVFTRHSQTTAIPSCPEGTVPLYSGFSFLFVQGNQRAHGQDLGTLGSCLQRFTTMPFLFCNVNDVCNFASRNDYSYWLSTPALMPMNMAPITGRALEPYISRCTVCEGPAIAIAVHSQTTDIPPCPHGWISLWKGFSFIMFTSAGSEGTGQALASPGSCLEEFRASPFLECHGRGTCNYYSNSYSFWLASLNPERMFRKPIPSTVKAGELEKIISRCQVCMKKRH"}}, "key": {"[1]": {"molecular_target": "VEGF-D (R&D Systems) (UniProt O43915)", "test": "cell-based or functional assay"}, "[2]": {"system": "HMVEC-LLy cells", "test": "Tube formation on Matrigel", "type": "cell-based, human", "details": "24 hrs, n=2", "description": "To assess formation of tubular structures, 48 well plates were coated with 130 μL Matrigel® (BD Bioscience), which was solidified at 37° C. over 45 min. 2×10^4 HMVEC-LLy cells in complete EBM-2 (500 μL) were seeded per well and allowed to attach for 30 min, before lamstatin, tumstatin, CP17 or vehicle was added to the wells. Photos were taken with a Kodak Digital Camera every 2 hrs. Tube formation peaked at 24 hrs, at which time tubular structures were further analysed to determine length (in pixels) and number of tubes per high power field (HPF) area (px^2). The HPF was divided in nine regions of equal size and tubes per region were counted. Mean and SEM were calculated and plotted."}, "[3]": {"system": "HMVEC-LLy cells", "test": "Migration towards a VEGF-D gradient (FluoroBlok transwell)", "type": "cell-based, human", "details": "24 hrs", "description": "FluoroBlok BioCoat 24-well inserts (BD Bioscience) were seeded with 4×10^4 HMVEC-LLy cells in 750 μL DMEM with 0.1% BSA, 1% antibiotics and 25 mM HEPES and incubated for 1 hr. The bottom well was filled with 500 μL medium (as described above) with or without 10 ng/mL VEGF-D (R&D Systems) as well as various concentrations of lamstatin, tumstatin, CP17 or vehicle. Additionally, top wells were loaded with inhibitors to match the bottom well concentration. According to manufacturer's instructions cells were allowed to migrate for 24 hrs before bottom media was removed. Thereafter the underside of the transwell with the migrated cells was washed twice with HANKS buffer and placed in a 4 μg/mL calcein (HANKS) solution for 90 min at 37° C. Signal was read with a bottom read fluorescence microplate reader at 485/515 nm (excitation/emission)."}, "[4]": {"molecular_target": "T1, integrin α5 (Homo sapiens, UniProt P05556+P08648)", "T1 construct": "endogenous in cells; host or cells: HMVEC-LLy (human primary lymphatic endothelial cells)", "T1 sequence (P08648 42-894 limits assumed)": "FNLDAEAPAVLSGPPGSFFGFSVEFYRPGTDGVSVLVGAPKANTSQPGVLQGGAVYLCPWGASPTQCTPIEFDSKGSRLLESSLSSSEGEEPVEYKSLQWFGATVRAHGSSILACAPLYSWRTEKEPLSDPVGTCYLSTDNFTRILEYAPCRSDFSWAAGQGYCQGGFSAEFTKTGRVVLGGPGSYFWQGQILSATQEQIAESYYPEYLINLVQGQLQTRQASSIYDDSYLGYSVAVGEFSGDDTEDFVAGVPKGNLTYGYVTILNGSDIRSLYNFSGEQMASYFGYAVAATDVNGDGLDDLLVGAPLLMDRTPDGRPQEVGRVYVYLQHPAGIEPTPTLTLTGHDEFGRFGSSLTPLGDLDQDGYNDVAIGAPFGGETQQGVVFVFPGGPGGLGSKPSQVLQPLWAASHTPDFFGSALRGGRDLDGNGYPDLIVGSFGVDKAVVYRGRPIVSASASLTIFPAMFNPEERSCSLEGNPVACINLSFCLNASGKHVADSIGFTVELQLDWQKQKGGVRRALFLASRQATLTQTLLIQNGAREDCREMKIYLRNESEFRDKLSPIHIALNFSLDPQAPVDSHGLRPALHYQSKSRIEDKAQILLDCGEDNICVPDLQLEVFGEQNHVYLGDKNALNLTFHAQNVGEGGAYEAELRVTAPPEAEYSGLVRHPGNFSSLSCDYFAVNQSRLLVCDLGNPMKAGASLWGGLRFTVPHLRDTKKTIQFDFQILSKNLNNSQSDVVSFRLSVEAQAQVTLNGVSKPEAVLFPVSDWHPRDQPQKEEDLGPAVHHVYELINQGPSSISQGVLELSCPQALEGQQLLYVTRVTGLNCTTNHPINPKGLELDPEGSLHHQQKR", "T1 sequence (P08648 895-1049 limits assumed)": "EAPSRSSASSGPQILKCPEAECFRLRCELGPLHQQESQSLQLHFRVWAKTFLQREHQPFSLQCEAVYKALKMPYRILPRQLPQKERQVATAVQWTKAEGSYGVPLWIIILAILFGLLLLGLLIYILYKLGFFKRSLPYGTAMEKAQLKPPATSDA", "T1 sequence (P05556 21-798)": "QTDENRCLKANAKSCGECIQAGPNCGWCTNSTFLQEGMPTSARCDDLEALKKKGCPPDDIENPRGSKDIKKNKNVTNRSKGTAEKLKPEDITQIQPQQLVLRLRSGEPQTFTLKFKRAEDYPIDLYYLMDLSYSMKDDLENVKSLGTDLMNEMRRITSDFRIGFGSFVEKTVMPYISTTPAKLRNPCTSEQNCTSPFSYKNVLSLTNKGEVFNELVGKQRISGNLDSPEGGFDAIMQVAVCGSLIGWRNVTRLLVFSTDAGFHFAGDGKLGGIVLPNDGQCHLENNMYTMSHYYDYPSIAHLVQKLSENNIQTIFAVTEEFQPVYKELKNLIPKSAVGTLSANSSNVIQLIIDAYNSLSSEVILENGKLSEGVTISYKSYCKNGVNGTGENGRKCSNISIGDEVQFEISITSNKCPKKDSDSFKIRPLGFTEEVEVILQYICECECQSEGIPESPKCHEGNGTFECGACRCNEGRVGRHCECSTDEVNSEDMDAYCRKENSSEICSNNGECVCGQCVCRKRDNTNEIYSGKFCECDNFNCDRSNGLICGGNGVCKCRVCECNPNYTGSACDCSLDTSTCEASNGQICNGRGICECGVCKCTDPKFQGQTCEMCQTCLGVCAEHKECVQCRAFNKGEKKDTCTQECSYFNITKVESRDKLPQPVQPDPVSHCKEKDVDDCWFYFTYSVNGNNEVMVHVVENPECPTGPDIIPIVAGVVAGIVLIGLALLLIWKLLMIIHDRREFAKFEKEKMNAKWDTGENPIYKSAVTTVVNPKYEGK", "test": "Integrin binding of HMVEC-LLy cells on antibody-coated plates", "type": "cell-based", "details": "lamstatin 10 μg/ml, CP17 5 μM, 1 h", "description": "(§1) Antibodies for integrin α5 (MAB1956Z; MAB1953Z), integrin β1 (MAB2253Z) and integrin β3 (MAB1957Z) (all Millipore, USA) were coated to 96 well tissue culture plates (Nunc, USA) at a concentration of 10 μg/mL overnight at 4° C. in sterile coating buffer (50 mM Na2CO3, 50 mM NaHCO3, pH 9.6). Plates then were blocked with sterile 1% BSA/PBS for 1 h at 37° C. and washed twice with EBM-2 MV (Lonza, Basel, Switzerland). MMVEC-LLy cells were carefully removed from culture flasks with non-enzymatic detachment solution (Trevigen, Md., USA) and washed twice with EBM-2 (Lonza, Basel, Switzerland). Volume was adjusted to a cell concentration of 50,000 cells/100 μL and divided into aliquots for treatment with recombinant lamstatin (10 μg/ml), CP17 (5 μM) or vehicle (1 nM EDTA, pH 3.5) only. Cells were then transferred to the antibody-coated plates and incubated for 1 h at 37° C. Wells were then washed with HANKS twice to remove unbound cells and fixed with 4% paraformaldehyde (in PBS) for 15 min at room temperature. Wells thereafter were photographed with an Olypmus CAMEDIA C-4000 camera mounted to an Olympus CK2 microscope. Pictures were divided into 25 segments and cells of 5 center-near quadrants were counted and averaged. […] Using a similar approach, the inventors observed no expression of integrin α4 on the surface of HMVEC-LLy cells (data not shown)."}, "[5]": {"molecular_target": "T2, integrin β1 (Homo sapiens, UniProt P05556+P08648)", "T2 construct": "endogenous in cells; host or cells: HMVEC-LLy (human primary lymphatic endothelial cells)", "T2 sequence (P05556 21-798)": "as above", "T2 sequence (P08648 42-894 limits assumed)": "as the sequence (P08648 42-894 limits assumed) above", "T2 sequence (P08648 895-1049 limits assumed)": "as the sequence (P08648 895-1049 limits assumed) above", "test": "Integrin binding of HMVEC-LLy cells on antibody-coated plates", "type": "cell-based", "details": "lamstatin 10 μg/ml, CP17 5 μM, 1 h", "description": "as §1"}, "[6]": {"molecular_target": "T3, integrin β3 (Homo sapiens, UniProt P05106)", "T3 construct": "endogenous in cells; host or cells: HMVEC-LLy (human primary lymphatic endothelial cells)", "T3 sequence (P05106 27-788)": "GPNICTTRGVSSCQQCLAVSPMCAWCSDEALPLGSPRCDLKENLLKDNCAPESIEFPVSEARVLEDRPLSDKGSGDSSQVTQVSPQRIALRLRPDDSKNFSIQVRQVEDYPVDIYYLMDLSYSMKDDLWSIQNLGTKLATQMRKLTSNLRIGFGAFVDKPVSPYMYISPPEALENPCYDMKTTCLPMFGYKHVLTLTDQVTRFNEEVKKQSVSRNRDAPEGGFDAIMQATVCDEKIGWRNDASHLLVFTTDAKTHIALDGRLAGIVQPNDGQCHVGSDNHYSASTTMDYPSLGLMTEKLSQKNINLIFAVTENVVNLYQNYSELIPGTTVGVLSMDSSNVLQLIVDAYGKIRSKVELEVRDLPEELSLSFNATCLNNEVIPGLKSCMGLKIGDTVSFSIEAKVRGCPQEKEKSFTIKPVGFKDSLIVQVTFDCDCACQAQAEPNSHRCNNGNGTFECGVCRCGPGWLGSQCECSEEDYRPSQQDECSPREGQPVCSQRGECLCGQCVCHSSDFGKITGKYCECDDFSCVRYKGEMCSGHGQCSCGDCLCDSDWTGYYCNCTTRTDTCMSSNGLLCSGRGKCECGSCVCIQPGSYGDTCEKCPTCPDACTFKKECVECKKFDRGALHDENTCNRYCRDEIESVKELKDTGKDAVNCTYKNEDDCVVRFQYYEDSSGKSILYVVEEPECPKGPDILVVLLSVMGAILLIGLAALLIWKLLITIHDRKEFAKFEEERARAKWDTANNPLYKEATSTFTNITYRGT", "T3 sequence (P06756 31-889 limits assumed, further chain)": "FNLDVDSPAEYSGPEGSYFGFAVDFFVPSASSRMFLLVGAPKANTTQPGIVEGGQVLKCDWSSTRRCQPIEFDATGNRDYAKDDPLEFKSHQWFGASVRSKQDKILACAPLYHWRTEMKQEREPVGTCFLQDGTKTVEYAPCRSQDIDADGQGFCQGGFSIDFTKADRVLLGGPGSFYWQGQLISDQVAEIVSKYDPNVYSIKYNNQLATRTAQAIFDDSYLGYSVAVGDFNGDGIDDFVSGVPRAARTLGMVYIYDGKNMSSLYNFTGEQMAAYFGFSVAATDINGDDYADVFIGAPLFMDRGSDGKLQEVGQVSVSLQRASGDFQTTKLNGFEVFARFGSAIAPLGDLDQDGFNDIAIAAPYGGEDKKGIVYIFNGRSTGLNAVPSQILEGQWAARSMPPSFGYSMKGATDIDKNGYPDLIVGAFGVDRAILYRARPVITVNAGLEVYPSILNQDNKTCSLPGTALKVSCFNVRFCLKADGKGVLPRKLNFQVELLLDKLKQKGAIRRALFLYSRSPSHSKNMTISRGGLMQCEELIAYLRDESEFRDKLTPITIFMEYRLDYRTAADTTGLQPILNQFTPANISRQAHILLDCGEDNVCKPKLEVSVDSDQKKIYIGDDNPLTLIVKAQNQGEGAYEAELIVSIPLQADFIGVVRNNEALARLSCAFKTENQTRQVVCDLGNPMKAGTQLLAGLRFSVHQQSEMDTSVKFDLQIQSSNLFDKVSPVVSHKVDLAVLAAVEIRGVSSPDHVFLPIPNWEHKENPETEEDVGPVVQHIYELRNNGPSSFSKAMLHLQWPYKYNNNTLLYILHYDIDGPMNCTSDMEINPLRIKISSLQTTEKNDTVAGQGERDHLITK", "T3 sequence (P06756 891-1048 limits assumed, further chain)": "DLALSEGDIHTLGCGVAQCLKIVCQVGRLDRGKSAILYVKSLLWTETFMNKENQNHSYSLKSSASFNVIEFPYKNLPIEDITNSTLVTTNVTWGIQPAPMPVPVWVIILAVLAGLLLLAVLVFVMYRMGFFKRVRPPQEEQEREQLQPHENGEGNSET", "test": "Integrin binding of HMVEC-LLy cells on antibody-coated plates", "type": "cell-based", "details": "lamstatin 10 μg/ml, CP17 5 μM, 1 h", "description": "as §1"}, "[7]": {"molecular_target": "T4, integrins α5 and β1 (Homo sapiens, UniProt P05556+P08648)", "T4 construct": "endogenous in cells; host or cells: HMVEC-LLy (human primary lymphatic endothelial cells)", "test": "Integrins mediating binding of lymphatic endothelial cells (data not shown)", "type": "cell-based", "details": "HMVEC-LLy in vitro, different from HUVECs"}, "[8]": {"system": "lung adenocarcinoma cells (LNM35 AAV-GFP)", "test": "Mouse ear tumour plug model of tumour-induced lymphangiogenesis", "type": "in vivo", "details": "lamstatin 10 or 100 μg/mL; CP17 5 or 50 μA; vs vehicle", "description": "A mouse ear tumour plug model was utilized in which green fluorescent protein (GFP)-tagged lung adenocarcinoma cells (LNM35 AAV-GFP) were injected between the two layers of skin of the ears of NOD/SCID mice. 1×10^6 tumour cells were embedded in […] growth factor free Matrigel® medium enriched with vehicle (1 nM EDTA, pH3.0) or lamstatin at either 10 μg/mL or 100 μg/mL. Mice were divided into three groups.\nGroup 1 (n=9): One ear of each mouse injected with tumour cells+10 μg/mL lamstatin; the other ear injected with tumour cells+vehicle control. Group 2 (n=9): One ear of each mouse injected with tumour cells+100 μg/mL lamstatin; the other ear injected with tumour cells+vehicle control. Group 3 (n=3): Each ear injected with Matrigel® only.\nInjections were single shots such that at least 25 μL was injected. 12 days after injection were sacrificed by anesthetisation and cervical dislocation. Ears were removed for whole mount staining. Flaps of skin from each ear were carefully separated, fixed and stained for either the lymphatic endothelial cell specific marker LyVe-1 (rabbit polyclonal anti-LyVe-1 antibody detected using anti-rabbit Alexafluor 647) or the vascular endothelial cell specific marker PECAM (CD31 rat anti-mouse antibody clone MEC13.3 (Pharmingen), detected with […]). Tumour cells were visualised by detection of GFP expression. Images of representative regions of ears were obtained using a confocal microscope and LyVe-1 or PECAM staining was quantified.\nUsing the LyVe-1 whole mount stained mouse ear sections, the inventors further investigated the morphology of lymphatic vessel formation. Specifically confocal images were loaded into Image J software (www.sbweb.nih.gov/ij/), a 5×5 grid overlayed and vessels examined for branching and looping. The functionality of a lymphatic network is based on its maturity and in general it is accepted that a tumour induces a rather immature network formation. Reconnecting vessels (measured as loops) and increased branching (measured as branches) are signs of immature vessels induced by, for example, a tumour (see for example Shayan et al. Growth Factors 25, 417-425, 2007).\nBranches were defined as two clearly distinguishable vessels that separate out without rejoining. Loops were defined as small, circular vessel structures in the same focal plane. Branches or loops were counted separately per image and mean values were calculated for each treatment group."}, "[9]": {"system": "human primary lymphatic endothelial cells (HMVEC-LLy cells)", "test": "MTT cell viability assay, lymphatic endothelial cells", "type": "cell-based", "details": "24 hrs, data not shown", "description": "To determine the function of lamstatin, human primary lymphatic endothelial cells (HMVEC-LLy cells) were exposed to various concentrations of lamstatin and an MTT assay was performed. As a comparison, commercially available tumstatin was used. Specifically, to assess cell viability 4×10^3 HMVEC-LLy cells were seeded per well in 100 μl complete EBM-2 media (with bullet kit, Lonza) and incubated for 2 hrs at 37° C., 5% CO2. After this period lamstatin, tumstatin and respective vehicles (1 nM EDTA, pH 3.0) were prepared in complete EBM-2 as serial dilutions in a separate plate and added. […] After 6 h of further incubation cells were lysed overnight with 10% SDS/0.01 M HCl and measured the following day in a plate reader at 570 nm.\nThe MTT assay was performed as described above."}, "[10]": {"system": "LAM nodule cells", "test": "MTT cell viability assay, LAM nodule cells", "type": "cell-based", "details": "intermediate layer, centre and outer nodule cells, 72 hrs", "description": "To determine the function of lamstatin, human primary lymphatic endothelial cells (HMVEC-LLy cells) were exposed to various concentrations of lamstatin and an MTT assay was performed. As a comparison, commercially available tumstatin was used. Specifically, to assess cell viability 4×10^3 HMVEC-LLy cells were seeded per well in 100 μl complete EBM-2 media (with bullet kit, Lonza) and incubated for 2 hrs at 37° C., 5% CO2. After this period lamstatin, tumstatin and respective vehicles (1 nM EDTA, pH 3.0) were prepared in complete EBM-2 as serial dilutions in a separate plate and added. Cells were grown for 24 hrs before MTT (1 mg/mL in PBS) was added. After 6 h of further incubation cells were lysed overnight with 10% SDS/0.01 M HCl and measured the following day in a plate reader at 570 nm.\nThe inventors isolated lung cells from a LAM patient, which cells originated from the LAM nodules. These cells were termed according to their location within the nodule, as intermediate layer in the nodule, centre cells and outer nodule cells. These cells were then treated with lamstatin or tumstatin and cell viability measured after 72 hrs. The MTT viability assay was performed as described above in Example 1."}}, "data": [{"molecule": "VEGFD specific blocking fusion receptor (R3-FC) (Fc fusion)", "values": [{"measurement": "migration of HMVEC-LLy towards a VEGFD gradient after 24 hrs (RFU)", "setting": "[1]", "value": "< 15000", "unit": "RFU"}]}, {"molecule": "VCNFASRNDYSYWLSTP (listed as Homo sapiens) [CP17]", "values": [{"measurement": "numbers of tube-like structures formed", "setting": "[2]", "value": "reduce in a concentration related manner"}, {"measurement": "migration towards a VEGFD gradient", "setting": "[3]; n=1, VEGFD alone 42.000 RFU", "value": "the same effect was not observed"}, {"measurement": "cell binding in presence of monoclonal antibody against integrin α5", "setting": "[4]", "value": "significantly inhibited cell binding"}, {"measurement": "cell binding in presence of monoclonal antibody against integrin β1", "setting": "[5]", "value": "significantly inhibited cell binding"}, {"measurement": "cell binding in presence of monoclonal antibody against integrin β3", "setting": "[6]", "value": "no effect on binding"}, {"measurement": "predominant integrins that mediate the binding of lymphatic endothelial cells", "setting": "[7]", "value": "integrins α5 and β1"}, {"measurement": "number of branches of lymphatic vessels", "setting": "[8]", "value": "significantly reduced"}, {"measurement": "number of loops of lymphatic vessels", "setting": "[8]", "value": "significantly reduced"}]}, {"molecule": "B1", "values": [{"measurement": "migration of lymphatic endothelial cells towards VEGFD", "setting": "[3]; increasing concentrations of VEGFD", "value": "attract lymphatic endothelial cells in a concentration related manner"}]}, {"molecule": "B2", "values": [{"measurement": "cell viability (MTT)", "setting": "[9]", "value": "lamstatin only"}, {"measurement": "numbers of tube-like structures formed", "setting": "[2]", "value": "reduce in a concentration related manner"}, {"measurement": "predominant integrins that mediate the binding of lymphatic endothelial cells", "setting": "[7]", "value": "integrins α5 and β1"}, {"measurement": "reduction of cell viability (MTT)", "setting": "[10]", "value": "effective in reducing cell viability at higher concentrations"}]}]}
